Measurements: the supplement of paper PMC10567573

B1: STK38L (parent)
chain: FLPGGDMMTLLMKKDTLTEEETQF

Variants of: B1
Experiment: protein stability index of a GFP-peptide fusion (GPS, HEK-293T) (PSI 1-6); higher = more stable
Conditions: c terminus: a fixed tail appended
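Also: lentivirally expressed fusions sorted by FACS into six bins by GFP to DsRed ratio, PSI derived from sequencing read proportions per bin multiplied by bin number.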

Variant | protein stability index
FLPGADMMTLLMKKDTLTEEETQF [G5A] | 2.63
FLPGNDMMTLLMKKDTLTEEETQF [G5N] | 3.13
FLPGRDMMTLLMKKDTLTEEETQF [G5R] | 3
FLPGPDMMTLLMKKDTLTEEETQF [G5P] | 2.94
FLPGLDMMTLLMKKDTLTEEETQF [G5L] | 3.01
FLPGVDMMTLLMKKDTLTEEETQF [G5V] | 2.79
FLPGKDMMTLLMKKDTLTEEETQF [G5K] | 4.21
FLPTGDMMTLLMKKDTLTEEETQF [G4T] | 3.34
FLPYGDMMTLLMKKDTLTEEETQF [G4Y] | 2.29
FLPFGDMMTLLMKKDTLTEEETQF [G4F] | 2.41
FLPCGDMMTLLMKKDTLTEEETQF [G4C] | 3.09
FLPAGDMMTLLMKKDTLTEEETQF [G4A] | 2.78
FLPWGDMMTLLMKKDTLTEEETQF [G4W] | 1.82
FLPLGDMMTLLMKKDTLTEEETQF [G4L] | 2.42
FLPQGDMMTLLMKKDTLTEEETQF [G4Q] | 3.36
FLPRGDMMTLLMKKDTLTEEETQF [G4R] | 3.26
FLPHGDMMTLLMKKDTLTEEETQF [G4H] | 3.29
FLPNGDMMTLLMKKDTLTEEETQF [G4N] | 2.76
FLPVGDMMTLLMKKDTLTEEETQF [G4V] | 3.39
FLPDGDMMTLLMKKDTLTEEETQF [G4D] | 3.84
FLPSGDMMTLLMKKDTLTEEETQF [G4S] | 2.61
FLPEGDMMTLLMKKDTLTEEETQF [G4E] | 3.57
FLPMGDMMTLLMKKDTLTEEETQF [G4M] | 2.35
FLPPGDMMTLLMKKDTLTEEETQF [G4P] | 3.95

Variant | protein stability index
FLPKGDMMTLLMKKDTLTEEETQF [G4K] | 3.27
FLPIGDMMTLLMKKDTLTEEETQF [G4I] | 2.35
FLPGGDFMTLLMKKDTLTEEETQF [M7F] | 2.23
FLPGGDHMTLLMKKDTLTEEETQF [M7H] | 3.72
FLPGGDEMTLLMKKDTLTEEETQF [M7E] | 4.77
FLPGGDIMTLLMKKDTLTEEETQF [M7I] | 2.08
FLPGGDYMTLLMKKDTLTEEETQF [M7Y] | 2.81
FLPGGDSMTLLMKKDTLTEEETQF [M7S] | 3.9
FLPGGDAMTLLMKKDTLTEEETQF [M7A] | 4.11
FLPGGDCMTLLMKKDTLTEEETQF [M7C] | 2.63
FLPGGDTMTLLMKKDTLTEEETQF [M7T] | 3.87
FLPGGDVMTLLMKKDTLTEEETQF [M7V] | 2.85
FLPGGDPMTLLMKKDTLTEEETQF [M7P] | 3.67
FLPGGDKMTLLMKKDTLTEEETQF [M7K] | 3.55
FLPGGDRMTLLMKKDTLTEEETQF [M7R] | 3.61
FLPGGDNMTLLMKKDTLTEEETQF [M7N] | 3.05
FLPGGDGMTLLMKKDTLTEEETQF [M7G] | 3.16
FLPGGDLMTLLMKKDTLTEEETQF [M7L] | 2.43
FLPGGDDMTLLMKKDTLTEEETQF [M7D] | 4.85
FLPGGDQMTLLMKKDTLTEEETQF [M7Q] | 3.65
FLPGGDMSTLLMKKDTLTEEETQF [M8S] | 4.02
FLPGGDMKTLLMKKDTLTEEETQF [M8K] | 3.66
FLPGGDMWTLLMKKDTLTEEETQF [M8W] | 1.44
FLPGGDMTTLLMKKDTLTEEETQF [M8T] | 4.3

Variant | protein stability index
FLPGGDMNTLLMKKDTLTEEETQF [M8N] | 4.12
FLPGGDMPTLLMKKDTLTEEETQF [M8P] | 3.82
FLPGGDMDTLLMKKDTLTEEETQF [M8D] | 4.8
FLPGGDMVTLLMKKDTLTEEETQF [M8V] | 2.54
FLPGGDMRTLLMKKDTLTEEETQF [M8R] | 3.36
FLPGGDMYTLLMKKDTLTEEETQF [M8Y] | 1.94
FLPGGDMHTLLMKKDTLTEEETQF [M8H] | 3.95
FLPGGDMETLLMKKDTLTEEETQF [M8E] | 4.21
FLPGGDMFTLLMKKDTLTEEETQF [M8F] | 1.84
FLPGGDMCTLLMKKDTLTEEETQF [M8C] | 3.33
FLPGGDMGTLLMKKDTLTEEETQF [M8G] | 3.76
FLPGGDMITLLMKKDTLTEEETQF [M8I] | 2.22
FLPGGDMATLLMKKDTLTEEETQF [M8A] | 3.75
FLPGGDMLTLLMKKDTLTEEETQF [M8L] | 2.06
FLPGGDMQTLLMKKDTLTEEETQF [M8Q] | 3.35
FLPGGDMMWLLMKKDTLTEEETQF [T9W] | 2.2
FLPGGDMMLLLMKKDTLTEEETQF [T9L] | 2.32
FLPGGDMMHLLMKKDTLTEEETQF [T9H] | 2.45
FLPGGDMMVLLMKKDTLTEEETQF [T9V] | 1.81
FLPGGDMMILLMKKDTLTEEETQF [T9I] | 2.19
FLPGGDMMKLLMKKDTLTEEETQF [T9K] | 2.12
FLPGGDMMMLLMKKDTLTEEETQF [T9M] | 3.26
FLPGGDMMQLLMKKDTLTEEETQF [T9Q] | 2.69
FLPGGDMMELLMKKDTLTEEETQF [T9E] | 3.2

Variant | protein stability index
FLPGGDMMFLLMKKDTLTEEETQF [T9F] | 2.16
FLPGGDMMDLLMKKDTLTEEETQF [T9D] | 4.35
FLPGGDMMGLLMKKDTLTEEETQF [T9G] | 2.71
FLPGGDMMYLLMKKDTLTEEETQF [T9Y] | 2
FLPGGDMMCLLMKKDTLTEEETQF [T9C] | 2.01
FLPGGDMMALLMKKDTLTEEETQF [T9A] | 2.52
FLPGGDMMNLLMKKDTLTEEETQF [T9N] | 3.01
FLPGGDMMPLLMKKDTLTEEETQF [T9P] | 4.22
FLPGGDMMRLLMKKDTLTEEETQF [T9R] | 1.69
FLPGGDMMSLLMKKDTLTEEETQF [T9S] | 2.38
QLPGGDMMTLLMKKDTLTEEETQF [F1Q] | 4.79
WLPGGDMMTLLMKKDTLTEEETQF [F1W] | 3.49
NLPGGDMMTLLMKKDTLTEEETQF [F1N] | 4.66
KLPGGDMMTLLMKKDTLTEEETQF [F1K] | 4.54
RLPGGDMMTLLMKKDTLTEEETQF [F1R] | 4.39
LLPGGDMMTLLMKKDTLTEEETQF [F1L] | 3.71
PLPGGDMMTLLMKKDTLTEEETQF [F1P] | 4.76
VLPGGDMMTLLMKKDTLTEEETQF [F1V] | 4.67
TLPGGDMMTLLMKKDTLTEEETQF [F1T] | 4.68
MLPGGDMMTLLMKKDTLTEEETQF [F1M] | 4.39
YLPGGDMMTLLMKKDTLTEEETQF [F1Y] | 2.33
SLPGGDMMTLLMKKDTLTEEETQF [F1S] | 4.29
